Experimental data as given in the DeepSol protein solubility set.

Test: soluble on expression in E. coli; label from the status in PepcDB or PDB records

Row | Sequence | soluble on expression in E. coli
1 | MGNARGFLDFKRMDFKKIAPKERILNYKEFTIPLDKKEQEVQGGRCMDCGVAFCHTGVMSEGKDVGCPLNNLIPEWNDLVYRSLWKEAYERLDLTNPFPEFTGRVCPAPCEDSCVCAINGVSVSIKNNELSIIENAFKENLVRVNKPKQYNGKKIAVIGSGPAGLACANTLNSLGYKVSVFERSDKIGGLLMYGIPDMKLDKSIVQRRVDLLKKSGIEFKVNENIDSKDKVSKLLKEFDALVLCTGASKPIDLDIEGRKLKGVEFALDFLTQNTKTLLKTGKGADMAKGKNVLVIGSGDTSVDCIAVATRQGAKSIVRFERSPKRPLQRSQNNPWPLKADIFTTDYGLEEAIAVYGKDPREYQKMTKKFLGKTHVEGVEANDLKREFKEGKAINVEISNSKKTYKADLVLLAMGFSGCEEAISKNFGVKLDEKNNISTENFQTTHKKIFACGDARKGQSLVVWAIKDGIECALSLHQNLAKLEHHHHHH | not soluble
2 | MGNKITVEVTVYAAIEKVWKYWNEPAHIMKWCQASPEWHVPAAQNDLKAGGTFTTTMAAKDGSMSFDFGGVYDQVKTNDLIEYTIGDGRKVRIVFTHTGDTTNIVESFDPEETNPRELQQSGWQAILNSFKSYTENNLEHHHHHH | soluble
3 | MGNVMEGKSVEELSSTECHQWYKKFMTECPSGQLTLYEFRQFFGLKNLSPSASQYVEQMFETFDFNKDGYIDFMEYVAALSLVLKGKVEQKLRWYFKLYDVDGNGCIDRDELLTIIQAIRAINPCSDTTMTAEEFTDTVFSKIDVNGDGELSLEEFIEGVQKDQMLLDTLTRSLDLTRIVRRLQNGEQDEEGADEAAEAAG | not soluble
4 | MGPIKTIKKKKRAEKKVDRNVLLAATAAATSASAAAALNNNDDDDDSSSQSLDWWDGFSRRIYGGSTDPKTFESVFKISRKTFDYICSLVKADFTAKPANFSDSNGNPLSLNDRVAVALRRLGSGESLSVIGETFGMNQSTVSQITWRFVESMEERAIHHLSWPSKLDEIKSKFEKISGLPNCCGAIDITHIVMNLPAVEPSNKVWLDGEKNFSMTLQAVVDPDMRFLDVIAGWPGSLNDDVVLKNSGFYKLVEKGKRLNGEKLPLSERTELREYIVGDSGFPLLPWLLTPYQGKPTSLPQTEFNKRHSEATKAAQMALSKLKDRWRIINGVMWMPDRNRLPRIIFVCCLLHNIIIDMEDQTLDDQPLSQQHDMNYRQRSCKLADEASSVLRDELSDQLCGKNSSA | soluble
5 | MGPSRWPRGGGRLLGRLYLVVTPRPGWSLEATLDRTERALAGGVEVVQLRAKDWEARPTLALGERMLALARRYGVPFFLNDRPDLAALLGADGVHLGQNDLTPEEARRFFAGMVGRSTHAPEQALRALEEGVDYLSVGPVWETPTKPGRPAAGLAYVRWAAENLGEKPWYAIGGIDLGNLDQVLEAGARRIVVVRAILDAPDPERAARALRERLYGVA | soluble
6 | MGQGNDTSEVMLLDTGWEFSQSGTEKWMPATVPGTVHQDLISHELLPNPFYGMNEKKIQWVENEDWEYRTSFIVSEEQLNRDGIQLIFEGLDTYADVYLNGSLLLKADNMFVGYTLPVKSVLRKGENHLYIYFHSPIRQTLPQYASNGFNYPADNDHHEKHLSVFSRKAPYSYGWDWGIRMVTSGVWRPVTLRFYDIATISDYYVRQLSLTDENARLSNELIVNQIVPQKIPAEVRVNVSLNGTTVTEVKQQVTLQPGINHITLPAEVTNPVRWMPNGWGTPTLYDFSAQIACGDRIVAEQSHRIGLRTIRVVNEKDKDGESFYFEVNGIPMFAKGANYIPQDALLPNVTTERYQTLFRDMKEANMNMVRIWGGGTYENNLFYDLADENGILVWQDFMFACTPYPSDPTFLKRVEAEAVYNIRRLRNHASLAMWCGNNEILEALKYWGFEKKFTPEVYQGLMHGYDKLFRELLPSTVKEFDSDRFYVHSSPYLANWGRPESWGTGDSHNWGVWYGKKPFESLDTDLPRFMSEFGFQSFPEMKTIAAFAAPEDYQIESEVMNAHQKSSIGNSLIRTYMERDYIIPESFEDFVYVGLVLQGQGMRHGLEAHRRNRPYCMGTLYWQLNDSWPVVSWSSIDYYGNWKALHYQAKRAFAPVLINPIQQNDSLSVYLISDRLDTMEQMTLEMKVVDFDGKTLGKKIQVHSLEVPANTSKCVYRAKLDGWLTPEDCRRSFLKLILKDKSGHQVAESVHFFRKTKDLQLPPTSVSYQMKQTDGKCELTLFSSMLAKDIFIETPLQGARYSDNFFDLLPGERKKVIITSPRIKKGEELPVNIKHIRETYKEHHHHHH | soluble
7 | MGQPIITRDAGRYFLTDRIRHEVDWWNTPQARGEEPPPVQKPVAPGAMVIPLPPPATWGIPPCSLADGIARRESRRRFRAVPLTPEELAFLLWATQGVRARLNEAAVLRTVPSAGCRHPFETYLAILSVTGIEPAVYRYLPLDHALVLEREVPDLAATVTAAAHGQRFAGEAAVTFVWTAIPARTEWRYAEASYKVIALDAGHVCQNLYLACEAIGAGTCAIAAYRQALADELLGVDGREEFTVYLAPVGKV | not soluble
8 | MGQSEPIVLVIFTNKDNKSDKPNDKLISETAKSVMKEFAAGSKNAAKELNDLEKKYNAHIGVYALDTKSGKEVKFNSDKRFAYASTSKAINSAILLEQVPYNKLNKKVHINKDDIVAYSPILEKYVGKDITLKALIEASMTYSDNTANNKIIKEIGGIKKVKQRLKELGDKVTNPVRYEIELNYYSPKSKKDTSTPAAFGKTLNKLIANGKLSKENKKFLLDLMLNNKSGDTLIKDGVPKDYKVADKSGQAITYASRNDVAFVYPK | soluble
9 | MGREMMELNENRALAGGRTGSLRNIKRPLAITEAERQAVRDINLAHLDITSIDFDLFYLRENMELPLDAAAAVAYRLIVGTGLPQKLRCRDDTLLNFILQCRKKYRNVPYHNFYHVVDVCQTIYTFLYKGAVCEKLTELDCFVLLVTALVHDLDHMGLNNSFYLKTDSPLGILSSASGNASVLEVHHCNLAVEILSDPDSDVFEGLDAADRTLAYRSMIDCVLATDMAKHNELLNLFLAAMEKPYQIGDVASRQMMMDVIVKAGDVSNVTKPFDISRLWAMAVTEEFYRQGDMEKEKGVEVLPMFDRSKNTELAKGQIGFIDFVAGPFFKKIVSASLTGMQWTVERVESNRLEWQRTLDVKAAGDGNK | soluble
10 | MGRKISVIIPTHYRNDLLPTAIESVARQDYEPVELIVVDDSGEGYAEPVLSEYDEVIDRPIIKEENEGWQAAYTTGIEQSTGEYIQFLDDDDYLYETKLKKTANVLDQNPEVGVSYCGVVRGDEGDFYPKQEVSGHFLEPALRFQTFPMWTGSMLMEREVLCDCLPMAGMGEEDDLDIELGDTDLKIELAKRTKADYVDECLTFYRQEGNKLWTGKRRFKKILQNIRHQKDIYNQYPEIRRDLLAEWYERQGRNYLNEQIWSAQAIQCFIKSAYYERKQKFPRIIETLAAILGRPGVMSAVRVKRTLLDGLEHHHHHH | not soluble
11 | MGRVDGLDKFKGLFDALEPKSEGQRELKEALLSDVDLVGVFGPTGTGKSLFSIVYGVSMTAEGRFRRVVLARPVIDVVTGRELTVMTDAQSYRRLAAEYLMDILSGFLGEERVREILSSDSLVLVDPHFLRGRTFDNSVIIVDDSQSMPPEAIVEIITRLGTGSKLIVIGDPVFQRTSEPGLDGASMAREILSNEPTAEVVDLGLKDIVRPGAKRGVKMLMELLMRRRTLNQAEKEVIEAARMHSPDADIITAVDLQDAKRKWGIESDHVPDVLVVVKEGHLGRFIGRGGERIEKIEGETGLRIRAIEHTLDLKEIVRAIHPVSWIHKHVIDFDFAGPQLKIKVSKEHMGPMLGQKGAHIRFLDEIVRKLLGVGVFVEEVEERRGRRRRR | not soluble
12 | MGRYKDETPAVRVYTVCDESRYMIVRNVPALGCGDDLMRLFMTYGEVEEFAKRKLDESSFLGNRLQISYAPEYENVNDTKDKLESRRKEVLARLNPQKEKSTSQVTKLAGPALTQTDNVSSQRREMEYQFHRGNAPVTRVSSDQEYFASSSMNQTVKTVREKLNKTREENISSLSHCKQIEESGNQKRLQPSSQTQPEESGNQKRLQPSSQIQPDLKRTRVDNRRRI | not soluble
13 | MGSDKIHHHHHHAADWQLEKVVELSRHGIRPPTAGNREAIEAATGRPWTEWTTHDGELTGHGYAAVVNKGRAEGQHYRQLGLLQAGCPTAESIYVRASPLQRTRATAQALVDGAFPGCGVAIHYVSGDADPLFQTDKFAATQTDPARQLAAVKEKAGDLAQRRQALAPTIQLLKQAVCQADKSCPIFDTPWQVEQSKSGKTTISGLSVMANMVETLRLGWSENLPLSQLAWGKITQARQITALLPLLTENYDLSNDVLYTAQKRGSVLLNAMLDGVKPEANPNVRWLLLVAHDTNIAMVRTLMNFSWQLPGYSRGNIPPGSSLVLERWRNAKSGERYLRVYFQAQGLDDLRRLQTPDAQHPMLRQEWHQPGCRQTDVGTLCPFQAAITALGQRIDRSSAPAVAMVLP | not soluble
14 | MGSDKIHHHHHHAAPGDLQEKLAALKGISGIEKLQSDYYPEKYVVRITQQVDPKDPAAGTFTQRVIVGHVGYDRPTIIVTEGYGAAYALNPKYQEELSKLLNANLVFVEYRYFLESTPEPKNWDYLTAENSAYDLHNVRNTFKQIYPGKWISTGISKGGQTTMLYRAFFPDDVDFSVPYVGPLCKGVEDGRHEPFLRKVGTKAEREKIQDFQLEVLKRKSDMLPLLESYCKNKNLTFRIPMPEVLDYCVLEYSFALWQWGTSVSTIPSKSADDQALFDHLMEISGPDYFAENQPNISFFVQAARELGYYGYDVKPFKKYLTIDSAHGYLNRIMLPEELVGKVDFRPALYHKIYNFLKDNDPKMIFIYGEIDPWSAAMVPAFKGKKNEQIYIQPRGSHRARIGNMPEDMKERILTQMNKWLAE | not soluble
15 | MGSDKIHHHHHHAEEKNLSEQWPVVASYQWAGQDSVVVCDLSLLKDTVDLPFSFFLKDFQIIKLDNRDEAMVGENNLCVSENYILVYGSVYELHPCRLFTKKGEFVTNIGAIGQGPGEYRAVYKAEIDEKHNCIYLMPFANSNAIYVYDLAGKPLRSIPLHQPVSKAVFKVDADKRELTVGALPFTGYPFVAWVQDFEGHLLDSVPAARHLSVLPDYSNEVMYGANTEVFDLYISTFFELRPDTLYHYIRSESRLKPRFTLNIGDRKRSITTFYELPQAYVGRLMVEEQVGDGMWETKSPSNFIVDKASLRGTFFRVINDFAGGMPDRLWTPWSLRNKQYIRLVEPGVLKAEIESYLSSTDGRKGKNRKKLQELCESIGEEDNSYVIYAKQKGVQ | not soluble
16 | MGSDKIHHHHHHAENNDDCFRGVPLQVKLPAGILSETMQDINIYVFDGSDRLLDILPIRSLEPVILSYPGIPSLHCIAWGNTQDGTMYVSPLKTGDPLSAGFISLKPSAVTRAQKSIFISPTDLFYGELNVDNTSTSNRIEEKEMSVSRMVASMNITIRGLELLSQSNEGVYSIVVHETASRVDFEGRYGGDPASYAFSPRFEAGKDYIIPPFNLFPTTVGSGISIDIYRNGSLLRSISTDSGNQPILPVVGKTLNVLLNFRLDVDVELALTGWGEEYIWKEYN | not soluble
17 | MGSDKIHHHHHHAIRANVMASNVDSLYSKVDTLSEQSKKNNVVREEFDYSALSFYVENFAKEYLNYNSKASDEAKKARIDRLSKYLSLDVKDVDETENLQGNVLRTFKNTSLSRIEKMEDCYLVYLNVNYELEKDKKTENVTQNMVLPIQVKDNLFSIVGRPYFVASSLPQGKTVSLKQTENSIDVDGKEKQSIEKFLKMFFTKYSVGNKQELMLLMKNPTTTAGQDSFVSIDSGDMKFFDTKQKGVTGVQVSVTFSDKTTKLTHTEDFSLWLSKTENSYFINTMKHYFTEKEGND | not soluble
